Measured values as given in the supplement of paper PMC10567573.
± gives the standard deviation.

Assay: protein stability index of a GFP-peptide fusion (GPS, HEK-293T) (PSI 1-6); higher = more stable
Conditions: c terminus: a fixed tail appended
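Also: 24-mer peptide tiles fused after GFP, lentivirally expressed, FACS-sorted into six equal bins by GFP/DsRed ratio, decoded by Illumina sequencing, PSI is the read-weighted mean bin number.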

| Sequence | protein stability index (treatment: DMSO) | protein stability index (treatment: MLN4924 1 uM, 8 h) |
| --- | --- | --- |
| DLVQWTRHMEAVKAQLLEQAQGQL [SOAT2] | 2.62 ± 0.56 | 2.69 ± 0.24 |
| KTEQQRRREKAVHRLRVQQAALRA [NOP53] | 3.98 ± 0.42 | 4.13 ± 0.18 |
| FPRLNRNKYMVTDGAAYIGNFDWV [PLD5] | 2.32 ± 0.89 | 2.32 ± 0.23 |
| MQRMIQQFAAEYTSKNSSTQDPSQ [LCOR] | 3.69 ± 0.41 | 3.68 ± 0.45 |
| QDLAFWYGPRWQEVIPYTPAMQRY [HMOX1] | 2.29 ± 0.2 | 2.36 ± 0.33 |
| DAILYYYQSGGRLKRPVNVPFDIF [KCNA4] | 2.58 ± 0.54 | 2.52 ± 0.63 |
| QQLHARYVLNLLYETKKHLVQLPN [PPEF2] | 2.66 ± 0.35 | 2.32 ± 0.22 |
| NQVVSSTNGELNTDDPTAGRSNAP [CSNK1G3] | 5.41 ± 0.28 | 5.5 ± 0.17 |
| PYFKSNDVVCKNQDELRNRSVKVI [FAN1] | 3.78 ± 0.16 | 4.01 ± 0.33 |
| AIPIEIKSIDDTSNFDDFPESDIL [STK38L] | 4.67 ± 0.17 | 4.84 ± 0.11 |
| APKAGLEEAPAVTAGLKIFEPPAP [TNFSF13B] | 4.6 ± 0.26 | 4.68 ± 0.086 |
| VARPVRFPREHQFFEDGDVQRHLY [ZNF511] | 3.31 ± 0.17 | 3.55 ± 0.38 |
| MYYRGSAAAIIVYDITKEETFSTL [RAB22A] | 2.75 ± 0.69 | 2.72 ± 0.84 |
| PQELINYVQTVDFMRTDNTCVNLL [KLHL13] | 2.46 ± 0.35 | 2.51 ± 0.42 |
| YSLELGKAIKQKLWEALCSQGAIS [C22orf31] | 2.4 ± 0.45 | 2.63 ± 0.29 |
| ELLALETALGGQCVDRQEVAEITK [TCAP] | 4.15 ± 0.26 | 4.5 ± 0.24 |
| AKKEDKVPVKKQKTRTVFSSTQLC [NANOGP8] | 4.2 ± 0.1 | 4.19 ± 0.12 |
| TVVSVRGFEESEPLTGFLTTVPDG [TNXB] | 3.92 ± 0.25 | 3.78 ± 0.41 |
| MQENITKVIERGERLDELQDKSES [VAMP4] | 5.04 ± 0.37 | 5.05 ± 0.41 |
| AASPELSALEEAFRRFAVHGDARA [TPPP] | 3.73 ± 0.12 | 3.74 ± 0.26 |
| GDVMFTGTADGRVVKLENGEIETI [APMAP] | 4.73 ± 0.51 | 5.06 ± 0.29 |
| FEYSTIKCRDLSALMHELSNDGAR [BTBD10] | 2.53 ± 0.31 | 2.57 ± 0.41 |
| QLPPVVPVSKPGALRRSLSRSMSQ [TCAP] | 3.97 ± 0.13 | 3.96 ± 0.13 |

| Sequence | protein stability index (treatment: DMSO) | protein stability index (treatment: MLN4924 1 uM, 8 h) |
| --- | --- | --- |
| QEKKRKFLESTDSFNNELKRLCGL [SMARCE1] | 2.87 ± 0.41 | 3.14 ± 0.69 |
| FIYMVLSLFIALITGAYDTIKHPG [MCOLN1] | 2.94 ± 0.21 | 2.85 ± 0.28 |
| TSSNLGSQYQCENGVSGPSQDLLP [TBX5] | 4.78 ± 0.16 | 4.6 ± 0.15 |
| PPVRPAGYLLSFHTPGGQNQEILL [TNXB] | 2.38 ± 0.29 | 2.38 ± 0.31 |
| SEEAVQKLATCYFFTVEFGLCKQD [TPH1] | 2.3 ± 0.61 | 2.27 ± 0.13 |
| AAQNCRKRKLDTILNLERDVEDLQ [NFE2L1] | 4.09 ± 0.44 | 4.62 ± 0.27 |
| EDFTNTLRELGHAEHEITELTATF [PKD2L1] | 4.43 ± 0.34 | 4.22 ± 0.091 |
| GSNEYTEGPSVVKRPAPRTAPRQE [SPRY1] | 4.9 ± 0.28 | 5.3 ± 0.17 |
| PPTVSQTPVIAATPVPTITANVTS [BRD3] | 4.83 ± 0.12 | 4.76 ± 0.18 |
| KEEKEDEISLEDLIERERSALGPN [ZC3H15] | 5.31 ± 0.35 | 5.26 ± 0.37 |
| WVEQAYADKCVCGPSAPPAPTPPS [TIAF1] | 3.9 ± 0.17 | 3.9 ± 0.3 |
| KRKGIKSSIGRLFGKKEKGRLIQL [PPFIA4] | 2.46 ± 0.31 | 2.22 ± 0.22 |
| RRHPGLGKAFPSGCSAVSEPASES [TRAF3IP2] | 4.31 ± 0.18 | 4.3 ± 0.41 |
| LTCNNYKNKMMVCQVGGIEALVRT [CTNNB1] | 2.32 ± 0.38 | 2.23 ± 0.56 |
| LKLVAHPRAKSKVWKYFGFDTNAE [ZBED1] | 2.23 ± 0.39 | 2.25 ± 0.26 |
| LNQQVVSSSEQLQCCQTEIIELRR [KRT36] | 4.29 ± 0.22 | 4.04 ± 0.27 |
| KLGAPLSGLQGLPECTRCGHGIVG [PDLIM4] | 2.65 ± 0.25 | 2.75 ± 0.36 |
| LTLKVCKPQAPQKLDPTLSSCFFI | 2.37 ± 0.59 | 2.3 ± 0.3 |
| RVVDGTPCSPDSSSVCVQGRCIHA [ADAMTS4] | 4.21 ± 0.35 | 4.39 ± 0.16 |
| LDHDIFQLIDPDENKENEAFEFKK [CDC25A] | 4.07 ± 0.083 | 4.13 ± 0.52 |
| LYPNPRERSSFYSCAGGRLFQQSC [CHIT1] | 1.94 ± 0.21 | 2.37 ± 0.43 |
| DGAISAHKPLLICSCEWMAAMFGG [RHOBTB1] | 2.25 ± 0.29 | 2.3 ± 0.15 |
